Reference: article PMC7594496

Key:
Experiment in all cases: liposome recruitment assay (liposome flotation, gel band quantification)
[1] = target: Sec23–Sec24 complex (WT), P15303;P40482; conditions: GMP-PNP, 400 nm unilamellar liposomes, read off a plot
[2] = target: Sec13–Sec31 complex (WT), Q04491;P38968; conditions: GMP-PNP; 400 nm unilamellar liposomes; parent: est. 1.1; read off a plot
Sar1 = Sar1 (UniProt P20606); conditions: GMP-PNP; 400 nm unilamellar liposomes; parent: est. 0.98; read off a plot
Chain of Sar1 (P20606 whole entry): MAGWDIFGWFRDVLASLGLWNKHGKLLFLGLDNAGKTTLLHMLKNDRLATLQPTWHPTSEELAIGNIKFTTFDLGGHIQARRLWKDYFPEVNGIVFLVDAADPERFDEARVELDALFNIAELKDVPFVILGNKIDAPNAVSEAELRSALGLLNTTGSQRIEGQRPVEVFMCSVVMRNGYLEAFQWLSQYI

Chain of Sec23–Sec24 complex (WT) (P15303 whole entry, stated change not applied, the tested form may be a part): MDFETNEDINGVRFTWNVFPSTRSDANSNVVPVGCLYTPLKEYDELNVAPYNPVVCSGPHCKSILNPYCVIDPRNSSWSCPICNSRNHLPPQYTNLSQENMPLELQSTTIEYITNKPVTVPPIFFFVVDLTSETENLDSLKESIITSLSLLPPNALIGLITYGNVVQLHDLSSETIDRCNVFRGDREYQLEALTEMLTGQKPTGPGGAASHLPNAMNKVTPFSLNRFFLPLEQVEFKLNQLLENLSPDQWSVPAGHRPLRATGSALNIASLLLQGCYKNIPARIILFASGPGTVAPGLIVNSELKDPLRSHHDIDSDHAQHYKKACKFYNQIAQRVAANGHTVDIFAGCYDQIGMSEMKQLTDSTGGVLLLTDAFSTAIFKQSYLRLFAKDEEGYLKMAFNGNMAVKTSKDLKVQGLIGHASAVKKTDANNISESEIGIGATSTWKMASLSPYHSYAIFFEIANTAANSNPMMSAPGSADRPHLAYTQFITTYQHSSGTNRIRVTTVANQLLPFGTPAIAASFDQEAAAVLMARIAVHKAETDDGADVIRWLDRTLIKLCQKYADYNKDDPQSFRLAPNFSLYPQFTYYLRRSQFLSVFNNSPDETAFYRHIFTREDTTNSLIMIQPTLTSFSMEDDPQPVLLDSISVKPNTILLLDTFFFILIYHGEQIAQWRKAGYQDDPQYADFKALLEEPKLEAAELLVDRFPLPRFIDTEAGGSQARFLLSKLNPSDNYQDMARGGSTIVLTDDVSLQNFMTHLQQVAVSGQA
Chain of Sec23–Sec24 complex (WT) (P40482 whole entry, stated change not applied, the tested form may be a part): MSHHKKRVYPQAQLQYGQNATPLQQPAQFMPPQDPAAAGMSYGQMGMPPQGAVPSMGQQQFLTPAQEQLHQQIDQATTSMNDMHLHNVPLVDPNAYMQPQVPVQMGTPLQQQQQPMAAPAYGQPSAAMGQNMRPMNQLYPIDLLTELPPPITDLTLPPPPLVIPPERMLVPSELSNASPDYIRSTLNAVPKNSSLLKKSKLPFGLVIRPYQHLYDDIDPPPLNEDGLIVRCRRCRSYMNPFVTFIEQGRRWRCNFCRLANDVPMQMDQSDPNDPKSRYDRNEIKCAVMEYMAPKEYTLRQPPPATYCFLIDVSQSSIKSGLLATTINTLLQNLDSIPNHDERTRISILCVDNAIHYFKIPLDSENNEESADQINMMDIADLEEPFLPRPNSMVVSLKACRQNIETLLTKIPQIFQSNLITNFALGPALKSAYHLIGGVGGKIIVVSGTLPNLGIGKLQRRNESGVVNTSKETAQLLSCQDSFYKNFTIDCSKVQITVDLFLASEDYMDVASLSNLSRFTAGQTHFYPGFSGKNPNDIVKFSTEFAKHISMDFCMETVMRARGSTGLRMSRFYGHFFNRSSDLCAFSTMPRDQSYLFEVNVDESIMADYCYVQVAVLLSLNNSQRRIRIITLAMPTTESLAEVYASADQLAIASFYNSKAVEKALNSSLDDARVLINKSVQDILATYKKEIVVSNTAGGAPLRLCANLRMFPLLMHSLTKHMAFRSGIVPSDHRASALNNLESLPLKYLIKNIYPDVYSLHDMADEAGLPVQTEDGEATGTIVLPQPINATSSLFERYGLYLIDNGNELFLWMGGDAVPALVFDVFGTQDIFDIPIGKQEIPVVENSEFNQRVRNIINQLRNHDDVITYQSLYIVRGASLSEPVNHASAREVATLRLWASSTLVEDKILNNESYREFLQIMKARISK
Chain of Sec13–Nhis-Sec31 complex (Q04491 whole entry, stated change not applied): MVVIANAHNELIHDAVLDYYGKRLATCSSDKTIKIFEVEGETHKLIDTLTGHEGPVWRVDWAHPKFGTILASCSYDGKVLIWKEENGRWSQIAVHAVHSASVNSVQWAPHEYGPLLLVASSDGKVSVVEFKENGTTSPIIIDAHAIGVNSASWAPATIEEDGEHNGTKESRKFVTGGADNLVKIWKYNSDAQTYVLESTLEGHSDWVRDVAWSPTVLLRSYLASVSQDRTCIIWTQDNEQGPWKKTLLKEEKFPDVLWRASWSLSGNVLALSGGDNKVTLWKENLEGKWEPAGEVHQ
Chain of Sec13–Nhis-Sec31 complex (P38968 whole entry, stated change not applied): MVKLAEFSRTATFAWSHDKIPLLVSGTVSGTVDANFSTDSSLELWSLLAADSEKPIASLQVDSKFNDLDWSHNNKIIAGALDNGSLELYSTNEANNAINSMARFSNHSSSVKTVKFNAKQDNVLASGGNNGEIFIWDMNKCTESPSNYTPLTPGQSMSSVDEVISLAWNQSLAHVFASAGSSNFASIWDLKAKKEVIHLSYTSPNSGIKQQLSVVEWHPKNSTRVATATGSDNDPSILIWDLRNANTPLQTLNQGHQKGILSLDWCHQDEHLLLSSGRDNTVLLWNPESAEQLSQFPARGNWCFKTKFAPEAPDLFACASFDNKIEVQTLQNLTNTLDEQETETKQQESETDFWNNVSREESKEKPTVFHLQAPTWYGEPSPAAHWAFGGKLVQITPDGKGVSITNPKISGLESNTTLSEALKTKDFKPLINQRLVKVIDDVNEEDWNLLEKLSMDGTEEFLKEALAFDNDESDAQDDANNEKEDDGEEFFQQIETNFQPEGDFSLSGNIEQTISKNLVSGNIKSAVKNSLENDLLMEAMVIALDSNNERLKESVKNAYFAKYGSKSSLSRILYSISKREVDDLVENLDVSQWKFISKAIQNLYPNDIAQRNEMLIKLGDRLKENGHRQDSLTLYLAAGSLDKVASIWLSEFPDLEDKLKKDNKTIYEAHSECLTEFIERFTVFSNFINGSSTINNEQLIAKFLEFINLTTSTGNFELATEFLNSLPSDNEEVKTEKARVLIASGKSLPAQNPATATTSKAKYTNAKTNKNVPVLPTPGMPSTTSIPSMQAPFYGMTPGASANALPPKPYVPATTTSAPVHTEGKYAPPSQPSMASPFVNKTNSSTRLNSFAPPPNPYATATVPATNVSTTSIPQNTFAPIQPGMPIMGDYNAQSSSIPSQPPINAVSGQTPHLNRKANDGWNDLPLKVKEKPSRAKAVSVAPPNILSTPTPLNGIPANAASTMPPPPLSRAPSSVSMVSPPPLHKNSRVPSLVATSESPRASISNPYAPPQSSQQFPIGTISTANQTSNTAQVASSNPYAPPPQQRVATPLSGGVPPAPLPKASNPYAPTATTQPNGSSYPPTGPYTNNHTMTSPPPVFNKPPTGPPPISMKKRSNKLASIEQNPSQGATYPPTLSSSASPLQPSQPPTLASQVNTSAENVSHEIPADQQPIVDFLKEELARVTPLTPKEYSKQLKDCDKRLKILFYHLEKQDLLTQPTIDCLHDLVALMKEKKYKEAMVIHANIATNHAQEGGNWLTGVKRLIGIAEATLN
Chain of Sec13–Sec31 complex (WT) (Q04491 whole entry, stated change not applied): as the sequence (Q04491 whole entry, stated change not applied) above
Chain of Sec13–Sec31 complex (WT) (P38968 whole entry, stated change not applied): as the sequence (P38968 whole entry, stated change not applied) above

With “Sec13–Nhis-Sec31 complex (from UniProt Q04491;P38968) ΔPPP (glycine/serine substitution of all six PPP motifs plus an additional PPAP motif; residues not printed)” the other: Ratio Sec31:Sec23 ([1]; parent: est. 0.91) was 0.91.

With “Sec23–Sec24 complex (WT) (from UniProt P15303;P40482) Δcharge (charge reversal of a negatively charged surface adjacent to the gelsolin domain of Sec23; residues not printed)” the other: Protein ratio Sec31:Sec23 [2] was 0.43 and the other: Protein ratio Sec23:Sar1 (Sar1) was 1.1.

“Sec13–Sec31 complex (WT) (from UniProt Q04491;P38968) ΔPPP (glycine/serine substitution of all six PPP motifs plus an additional PPAP motif; residues not printed)” showed an other: Ratio Sec31:Sec23 ([1]; parent: est. 1.1) of 1.2.
